From article PMC10250397

Molecular target: SERCA2-mTurquoise2 (UniProt P16615)
Experiment: FRET or BRET; three channel sensitized emission FRET on living HEK293-T cells, SERCA2-mTurquoise2 donor and GSK3β-sYFP2 acceptor, confocal microscope; normoxia or 60 min hypoxia followed by 30 min reoxygenation

Chain of GSK3β-sYFP2 (P49841 whole entry): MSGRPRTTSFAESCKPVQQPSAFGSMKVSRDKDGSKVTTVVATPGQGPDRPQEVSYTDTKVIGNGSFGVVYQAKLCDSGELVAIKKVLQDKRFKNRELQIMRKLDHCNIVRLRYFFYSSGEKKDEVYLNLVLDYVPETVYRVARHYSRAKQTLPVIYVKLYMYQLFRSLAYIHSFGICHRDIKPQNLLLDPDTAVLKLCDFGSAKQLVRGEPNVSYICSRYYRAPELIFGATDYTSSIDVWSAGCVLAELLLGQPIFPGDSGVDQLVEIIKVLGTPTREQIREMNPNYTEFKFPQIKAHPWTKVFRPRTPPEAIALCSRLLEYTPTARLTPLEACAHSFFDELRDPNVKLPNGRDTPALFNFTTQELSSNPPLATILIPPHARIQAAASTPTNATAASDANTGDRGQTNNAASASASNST
Chain of UniProt P16615 (P16615 whole entry): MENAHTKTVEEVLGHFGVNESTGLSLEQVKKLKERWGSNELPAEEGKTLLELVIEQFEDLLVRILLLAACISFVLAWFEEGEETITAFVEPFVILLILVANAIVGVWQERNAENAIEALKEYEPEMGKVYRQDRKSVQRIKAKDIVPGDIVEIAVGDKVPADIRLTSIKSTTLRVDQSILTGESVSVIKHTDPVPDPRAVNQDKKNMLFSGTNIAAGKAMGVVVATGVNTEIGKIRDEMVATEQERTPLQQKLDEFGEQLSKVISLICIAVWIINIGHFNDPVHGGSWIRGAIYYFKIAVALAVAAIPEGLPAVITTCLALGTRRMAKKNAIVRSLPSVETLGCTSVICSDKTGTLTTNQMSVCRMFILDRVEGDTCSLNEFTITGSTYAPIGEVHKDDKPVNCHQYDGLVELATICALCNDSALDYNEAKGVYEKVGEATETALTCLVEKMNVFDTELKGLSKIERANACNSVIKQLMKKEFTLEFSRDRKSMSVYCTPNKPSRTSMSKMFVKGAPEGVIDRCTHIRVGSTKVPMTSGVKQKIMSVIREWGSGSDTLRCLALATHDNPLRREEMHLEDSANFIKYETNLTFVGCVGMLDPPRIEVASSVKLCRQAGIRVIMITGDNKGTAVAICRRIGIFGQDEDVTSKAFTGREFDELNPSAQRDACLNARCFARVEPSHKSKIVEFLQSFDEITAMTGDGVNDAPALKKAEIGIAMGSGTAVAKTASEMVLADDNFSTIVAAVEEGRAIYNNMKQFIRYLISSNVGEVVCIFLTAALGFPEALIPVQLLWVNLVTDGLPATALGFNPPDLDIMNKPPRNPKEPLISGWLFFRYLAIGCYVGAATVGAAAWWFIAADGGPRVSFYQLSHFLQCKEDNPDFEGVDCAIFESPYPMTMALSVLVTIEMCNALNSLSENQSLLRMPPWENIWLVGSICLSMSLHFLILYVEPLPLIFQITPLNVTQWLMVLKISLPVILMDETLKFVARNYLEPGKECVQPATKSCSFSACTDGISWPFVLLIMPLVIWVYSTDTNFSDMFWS

Substance | fold change of FRET efficiency after H/R against normoxia [fold] | FRET efficiency [%]
GSK3β-sYFP2 (from UniProt P49841 1-420) (enzyme) | 3 | –
GSK3β-sYFP2 (from UniProt P49841 1-420) (living HEK293-T cells) | – | 3.11
